According to patent US20210284695A1, “FOLDED AND PROTEASE-RESISTANT POLYPEPTIDES” (UNIVERSITY OF WASHINGTON, priority 2017, published 2021):

Format: physicochemical
Description: FIG. 2. Biophysical characterization of designed minimal proteins. (A) Design models and NMR solution ensembles for designed minimal proteins. (B) Far-ultraviolet circular dichroism (CD) spectra at 25° C. (black), 95° C. (red), and 25° C. following melting (blue). (C) Thermal melting curves measured by CD at 220 nm. Melting temperatures determined using the derivative of the curve. (D) Chemical denaturation in GuHCl measured by CD at 220 nm and 25° C. Unfolding free energies determined by fitting to a two-state model (red solid line).
Far-ultraviolet CD measurements were carried out with an AVIV spectrometer, model 420. Wavelength scans were measured from 260 to 195 nm at 25 and 95° C. Temperature melts monitored dichroism signal at 220 nm in steps of 2° C./minute with 30 s of equilibration time. […] The GuHCl concentration was determined by refractive index in PBS buffer. The denaturation process monitored dichroism signal at 220 nm in steps of 0.2 M GdmCl with 1 minute mixing time for each step, at 25° C. Protein concentrations were determined by absorbance at 280 nm measured using a NanoDrop™ spectrophotometer (Thermo Scientific) using predicted extinction coefficients (65). Protein concentrations for designs lacking aromatic amino acids were measured by Qubit™ protein assay (ThermoFisher Scientific). […]

## TTVKGDIKVTFDNPEKAKKYAQKLAKIYQLTVHVHGDTIHVK [EEHEE_rd3_1049]
  stability of purified design (CD, in words): very stable
